In patent publication US20170022273A1 (SORRENTO THERAPEUTICS, published 2017):
Where a chain is given by its changes, count along the chain named. Blank lines part the entries; values can stand above or below the binder they belong to.

What was measured:
[1] = biological target: T1, Recombinant human LAG3/His (human, UniProt P18627 23-450); assay: Biacore SPR, antibody captured on anti-human Fc CM5 chip, LAG3/His as analyte, 1:1 Langmuir fit
T1 construct: Analyte in the Biacore assay, serially diluted in HBS-EP; not shown: His tag
T1 sequence (looked up): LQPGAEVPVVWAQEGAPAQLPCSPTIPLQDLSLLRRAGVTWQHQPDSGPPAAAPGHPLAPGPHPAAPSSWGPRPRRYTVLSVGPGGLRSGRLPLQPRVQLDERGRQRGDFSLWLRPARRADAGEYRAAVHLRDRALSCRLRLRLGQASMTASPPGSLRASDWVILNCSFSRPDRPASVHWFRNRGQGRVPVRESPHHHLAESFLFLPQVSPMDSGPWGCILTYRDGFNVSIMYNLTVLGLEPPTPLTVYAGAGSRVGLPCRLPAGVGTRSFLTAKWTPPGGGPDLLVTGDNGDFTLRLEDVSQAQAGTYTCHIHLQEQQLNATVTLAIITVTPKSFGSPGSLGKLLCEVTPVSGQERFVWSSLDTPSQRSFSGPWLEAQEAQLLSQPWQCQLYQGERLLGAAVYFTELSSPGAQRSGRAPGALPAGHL
Procedure: The binding affinity of antibody L3C5 for human LAG3 was also tested using a BiaCore assay. […] Biacore was used to measure the affinity of LAG3 antibody L3C5. Anti-human Fc antibody (GE, BR-1008-39) was immobilized on CM5 sensor chip to approximately 5000 RU using standard NHS/EDC coupling methodology. Antibody (approximately 2 ug/ml) were captured for 60 s at a flow rate 10 uL/min. Recombinant human LAG3/His was serially diluted in running buffer (HBS-EP). All measurements were conducted with a flow rate of 30 μL/min Surfaces were regenerated with 3M MgCl2 (from human antibody kit) for 60 s. A 1:1 (Langmuir) binding model was used to fit the data.

[2] = biological target: T2, recombinant human LAG3/Fc (human, UniProt P18627 23-450); assay: ELISA, plate coated with 2 ug/mL recombinant human LAG3/Fc, IgG about 5ug/ml
T2 construct: Coated on the ELISA plate at 2 ug/mL; not shown: Fc part of the LAG3/Fc fusion
T2 sequence (looked up): T1 sequence (looked up)
Procedure: (§1) An analysis of the cross-reactivity of various LAG3 antibodies to recombinant mouse LAG3 and human LAG3 was also performed. A Maxisorb ELISA plate was coated with 2 ug/mL recombinant human, and mouse LAG3/Fc (blank: PBS). Incubated overnight at 4° C. The plate was washed 3 times with PBS-Tween (PBST), then blocked with Casein blocking buffer for 1 hour at room temperature. Next, IgGs diluted in casein (about 5ug/ml) were added, and incubated 30 min with shaking. The plate was washed 3 times with PBST. Horseradish peroxidase (HRP)-conjugated goat anti-human Lambda HRP (1:1000 in casein) was added, then 3,3′,5,5′-Tetramethylbenzidine (TMB) was added as substrate and developed 30 min 2M H2SO4 was used to stop the reaction and the OD was read at 450 nm Anti-AIP antibody C7 was used as a control antibody.

[3] = biological target: T3, recombinant mouse LAG3/Fc (mouse, UniProt Q61790 24-442); assay: ELISA, plate coated with 2 ug/mL recombinant mouse LAG3/Fc, anti-human Lambda HRP detection
T3 construct: Coated on the ELISA plate at 2 ug/mL; not shown: Fc part of the LAG3/Fc fusion
T3 sequence (looked up): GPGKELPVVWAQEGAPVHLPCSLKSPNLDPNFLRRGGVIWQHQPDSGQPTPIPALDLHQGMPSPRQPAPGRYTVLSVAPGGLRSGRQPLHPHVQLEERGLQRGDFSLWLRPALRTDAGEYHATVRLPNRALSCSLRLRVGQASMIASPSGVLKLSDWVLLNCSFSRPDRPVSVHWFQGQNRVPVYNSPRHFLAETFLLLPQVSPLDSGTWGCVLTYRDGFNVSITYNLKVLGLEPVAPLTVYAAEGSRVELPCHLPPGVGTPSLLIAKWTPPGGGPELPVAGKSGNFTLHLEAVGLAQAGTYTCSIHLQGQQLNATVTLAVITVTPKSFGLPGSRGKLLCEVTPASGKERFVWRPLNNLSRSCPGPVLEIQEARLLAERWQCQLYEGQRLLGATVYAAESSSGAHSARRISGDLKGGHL
Procedure: as §1

Ka [1]: 6.6e+06 M⁻¹
Kd [1]: 152 nM
koff [1]: 0.0717 s⁻¹
kon [1]: 473000 M⁻¹ s⁻¹
B1: L3C5 (antibody, V domains shown)
VH: QVQLVQSGSELKKPGASVKVSCKASGYTFTNYYMHWVRQAPGQGLEWMGIINPSGGATNYAQKFQGRVTMTRDTSTSTVYMELSSLRSEDTAVYYCARDSGYDLGYGMDVWGQGTLVTVSS
VL: QSVLTQPASVSGSPGQSITISCTGTSSDVGGYNYVSWYQQHPGKAPKLMIYDVSNRPSGASNRFSGSKSGNTASLTISGLQAEDEADYYCSSYTNRNTLLFGGGTKLTVL
notes: Captured on an anti-human Fc antibody chip in the Biacore assay, so a whole antibody with a human Fc; also called LAG3 antibody L3C5; 13

binding result [2]: binds
binding result [3]: no binding (tested: about 5ug/ml)
B2: L33H11 (antibody, V domains shown)
VH: QVQLVQSGAEVKKPGASVKVSCKASGYTFTSYYMHWVRQAPGQGLEWMGIINPSAGSTSYAQKFQGRVTMTRDTSTSTVYMELSSLRSEDTAVYYCARELMATGGFDYWGQGTLVTVSS
VL: B1 VL with Q1L, S2P, S54T, A60V, N95S, R96S, K106Q
notes: Tested as a fully human IgG with a lambda light chain; also called anti-hLAG3 antibody L33H11

binding result [2]: binds
binding result [3]: no binding (tested: about 5ug/ml)
B3: L35G6 (antibody, V domains shown)
VH: B2 VH
VL: QAGLTQPASVSGSPGQSITISCTGSSSDVGGYSYVSWYQKHPGKAPKLMIYDVTNRPSGVSNRFSGSKSGNTASLTISGLQAEDEADYYCSTYTRSNTLVFGPGTKVTVL
notes: Tested as a fully human IgG with a lambda light chain (detected with anti-human Lambda HRP); also called anti-hLAG3 antibody L35G6

binding result [2]: binds
binding result [3]: no binding (tested: about 5ug/ml)
B4: L32D10 (antibody, V domains shown)
VH: B2 VH
VL: B1 VL with A8P, V10A, I18V, N33D, P42Q, A60V, N95S, R96S, N97T, L100V
notes: Tested as a fully human IgG with a lambda light chain; also called anti-hLAG3 antibody L32D10

binding result [2]: binds
binding result [3]: no binding (tested: about 5ug/ml)
B5: L35D4 (antibody, V domains shown)
VH: B2 VH
VL: QSVLTQPPSASGSPGQSVTISCTGTSSDVGGYNYVSWYQQYPGKAPRLMIFEVTERASGVPDRFSGSKSGNTASLTVSGLQTEDEAVYFCSSYSGSNNPGAMFGGGTKLTVL
notes: Tested as a fully human IgG with a lambda light chain; also called anti-hLAG3 antibody L35D4

binding result [2]: binds
binding result [3]: no binding (tested: about 5ug/ml)
B6: L32A4 (antibody, V domains shown)
VH: B2 VH
VL: QSVLTQPASVSGSPGQSITISCTGTSSDIGAYNFVSWYQQHPGKAPKLMIYGVSNRPSGVSSRFSGSKSGSTASLTISGLQAEDEADYYCSSYTTSGSAVFGTGTKLTVL
notes: Tested as a fully human IgG with a lambda light chain; also called anti-hLAG3 antibody L32A4

binding result [2]: binds
binding result [3]: no binding (tested: about 5ug/ml)
B7: L32A9 (antibody, V domains shown)
VH: B2 VH
VL: QSVVTQPPSVSAAPGQKVTISCSGSSSNIGNNYVSWYQQLPGTAPKLLIYDNNKRHSGIPDRFSGSTSDTSATLGITRLQTGDEADYYCGTWDSSLSAYVFGTGTKVTVL
notes: Tested as a fully human IgG with a lambda light chain; also called anti-hLAG3 antibody L32A9
